# Experimental data as given in publication PMC8964682, “Structural and biochemical characterization of in vivo assembled Lactococcus lactis CRISPR-Csm complex” (Communications Biology, 2022).
# Legend:
# [1] = molecular target: the molecule itself; experiment: cryo-EM structure; co-purified LlCsm (Csm1 D14N, Csm3 D30A)-crRNA incubated with NTR at 1:2, 37 °C, 60 min, then SEC; 3.4 Å
# [2] = molecular target: the molecule itself; experiment: cryo-EM structure; co-purified LlCsm (Csm1 D14N, Csm3 D30A)-crRNA incubated with CTR at 1:2, 37 °C, 60 min, then SEC; no ATP; two classes, CTR-43 (3.0 Å) and CTR-32 (3.3 Å)
Protein,stoichiometry N [1],stoichiometry N [2]
"Lactococcus lactis Csm2 with N-terminal His6-tag, subunit of the LlCsm complex (natural protein, Csm2 of the plasmid-encoded (pKLM) Type III-A CRISPR-Cas system of Lactococcus lactis; The csm2 gene encoded the His6-tag in all variants of LlCsm (wild type and Csm1 D14N / Csm3 D30A); Removal of the tag is not mentioned; also called LlCsm2; not shown: His6, N-terminal, kept) TELKIGNEKVNSTNFGDFAEKAIRGINHKPFVNSKGGEQKITTSKIRGILELVNKVYNRVINTNDVELSENILADIAYIKVKIAYESGREPVVKDFIQRTAFTAAITDVMNQRTRESFLLFARYVESLIAYFKFYGGKD",3,2
"Lactococcus lactis Csm3 Asp30Ala, subunit of the LlCsm (D14N)1(D30A)3 complex (natural protein, Csm3 of the plasmid-encoded (pKLM) Type III-A CRISPR-Cas system of Lactococcus lactis, with the RNase-site mutation D30A; Csm3.1 is the Csm3 copy closest to Csm4; There are four copies in CTR-43, NTR and apo, and three in CTR-32; also called Csm3.1; Csm3.2) MKLVIEGTIVLKTGMHIGGSSDFSAIGAVASPVVRDTLTRLPLIPGSSLKGKMRYLLAKELNNGILLNEPNNDQDEILRLFGSSEKDKIRRARLKFNDIKLSNLAELETFNVSSTEVKFENTINRKTAVANPRQIERVIAGSKFDFEIFYNLDDIKEVEKDFENIKQGFDLLEFDYLGGHGTRGSGRIAFENLSVITAVGNFEKINTLNEILGA",4,3
